Values quoted from earlier work, collected in PMC10878502.
pKd: −log10 of the molar value.

Columns and labels:
[1] = molecular target: ASPP1 (Homo sapiens) (UniProt Q96KQ4)
[2] = molecular target: ASPP2 (Homo sapiens) (UniProt Q13625)
[3] = molecular target: ASPP2 ANK-SH3 (Homo sapiens) (UniProt Q13625)
[4] = molecular target: iASPP ANK-SH3 (Homo sapiens) (UniProt Q8WUF5)
Chain of iASPP ANK-SH3 (Homo sapiens) (Q8WUF5 608-828): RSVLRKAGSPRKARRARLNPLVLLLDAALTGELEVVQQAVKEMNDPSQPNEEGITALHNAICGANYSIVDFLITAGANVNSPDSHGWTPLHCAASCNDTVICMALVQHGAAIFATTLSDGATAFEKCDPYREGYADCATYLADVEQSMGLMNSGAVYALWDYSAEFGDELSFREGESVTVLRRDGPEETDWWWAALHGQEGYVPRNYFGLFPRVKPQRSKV

Chain of ASPP2 (Homo sapiens) (Q13625 whole entry): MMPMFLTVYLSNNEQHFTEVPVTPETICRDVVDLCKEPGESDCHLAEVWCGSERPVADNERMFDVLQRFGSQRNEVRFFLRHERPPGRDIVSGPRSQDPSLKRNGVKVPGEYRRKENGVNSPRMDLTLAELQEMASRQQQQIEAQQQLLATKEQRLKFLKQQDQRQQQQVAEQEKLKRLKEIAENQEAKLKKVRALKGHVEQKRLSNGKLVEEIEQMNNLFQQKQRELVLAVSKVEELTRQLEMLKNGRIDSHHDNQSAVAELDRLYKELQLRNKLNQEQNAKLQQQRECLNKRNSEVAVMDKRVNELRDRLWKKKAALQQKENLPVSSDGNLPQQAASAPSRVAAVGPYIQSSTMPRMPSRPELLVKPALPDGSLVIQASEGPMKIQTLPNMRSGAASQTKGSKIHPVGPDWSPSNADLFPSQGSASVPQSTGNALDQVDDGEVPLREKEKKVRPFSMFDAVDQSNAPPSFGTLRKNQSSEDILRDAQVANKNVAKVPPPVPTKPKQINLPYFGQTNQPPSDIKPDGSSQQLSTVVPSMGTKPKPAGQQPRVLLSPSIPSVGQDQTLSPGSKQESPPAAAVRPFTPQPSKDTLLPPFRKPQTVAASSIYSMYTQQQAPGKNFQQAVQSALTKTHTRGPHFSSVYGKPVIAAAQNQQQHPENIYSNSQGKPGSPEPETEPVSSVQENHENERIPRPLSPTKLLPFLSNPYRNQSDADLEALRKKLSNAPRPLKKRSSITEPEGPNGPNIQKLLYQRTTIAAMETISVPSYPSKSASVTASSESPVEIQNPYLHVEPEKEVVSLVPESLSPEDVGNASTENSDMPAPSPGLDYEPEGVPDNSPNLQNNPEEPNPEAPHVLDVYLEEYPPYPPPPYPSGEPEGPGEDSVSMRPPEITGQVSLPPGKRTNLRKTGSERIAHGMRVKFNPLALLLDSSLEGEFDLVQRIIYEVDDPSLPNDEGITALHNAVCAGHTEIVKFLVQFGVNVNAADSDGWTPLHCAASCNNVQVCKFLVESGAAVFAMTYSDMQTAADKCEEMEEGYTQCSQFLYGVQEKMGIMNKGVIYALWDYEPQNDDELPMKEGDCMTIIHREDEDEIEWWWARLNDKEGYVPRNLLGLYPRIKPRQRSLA
Chain of ASPP1 (Homo sapiens) (Q96KQ4 whole entry): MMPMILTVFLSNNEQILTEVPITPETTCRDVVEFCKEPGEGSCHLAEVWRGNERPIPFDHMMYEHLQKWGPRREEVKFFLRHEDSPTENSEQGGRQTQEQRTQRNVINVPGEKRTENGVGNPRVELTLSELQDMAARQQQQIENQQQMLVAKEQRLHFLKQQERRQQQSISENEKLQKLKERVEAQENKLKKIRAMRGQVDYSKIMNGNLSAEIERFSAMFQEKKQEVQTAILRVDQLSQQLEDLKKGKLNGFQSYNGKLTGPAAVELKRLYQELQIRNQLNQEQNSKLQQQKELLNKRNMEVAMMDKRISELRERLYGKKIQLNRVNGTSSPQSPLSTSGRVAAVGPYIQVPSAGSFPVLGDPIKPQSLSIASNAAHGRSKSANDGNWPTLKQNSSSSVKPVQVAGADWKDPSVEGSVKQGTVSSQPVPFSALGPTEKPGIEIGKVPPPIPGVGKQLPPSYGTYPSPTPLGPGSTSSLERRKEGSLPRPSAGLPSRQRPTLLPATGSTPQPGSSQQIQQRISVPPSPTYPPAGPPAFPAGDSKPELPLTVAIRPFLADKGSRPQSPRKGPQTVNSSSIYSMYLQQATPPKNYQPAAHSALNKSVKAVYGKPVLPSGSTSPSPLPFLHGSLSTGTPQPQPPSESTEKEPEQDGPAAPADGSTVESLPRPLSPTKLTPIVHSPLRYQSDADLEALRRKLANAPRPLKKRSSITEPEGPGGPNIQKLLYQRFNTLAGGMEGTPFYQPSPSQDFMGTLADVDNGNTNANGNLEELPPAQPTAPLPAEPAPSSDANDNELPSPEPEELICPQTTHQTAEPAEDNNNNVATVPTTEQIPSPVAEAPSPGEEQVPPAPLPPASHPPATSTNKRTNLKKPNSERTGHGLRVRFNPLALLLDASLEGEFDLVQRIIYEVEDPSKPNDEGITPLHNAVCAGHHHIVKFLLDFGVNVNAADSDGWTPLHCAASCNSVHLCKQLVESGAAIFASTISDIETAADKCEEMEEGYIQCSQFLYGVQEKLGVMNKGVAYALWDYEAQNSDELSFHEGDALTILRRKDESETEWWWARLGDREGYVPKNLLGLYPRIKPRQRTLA
Chain of ASPP2 ANK-SH3 (Homo sapiens) (Q13625 892-1128): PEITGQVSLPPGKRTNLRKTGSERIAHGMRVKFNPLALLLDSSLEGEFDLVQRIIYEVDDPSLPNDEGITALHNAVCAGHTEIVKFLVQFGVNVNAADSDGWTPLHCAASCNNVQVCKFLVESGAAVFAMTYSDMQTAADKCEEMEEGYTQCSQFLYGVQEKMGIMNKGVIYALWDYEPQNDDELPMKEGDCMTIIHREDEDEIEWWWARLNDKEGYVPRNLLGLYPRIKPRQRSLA

Row | pKd [1] | pKd [2] | pKd [3] | pKd [4] | Substance
1 | 6.30 | 5.30 | – | – | p53 (from UniProt P04637)
2 | – | – | 7.58 | 7.63 | p53 DBD (from UniProt P04637)
